Data: paper PMC10603095 (Nature Communications, 2023)
Where a chain is given by its changes, count along the chain named. Numbers in names are those of the source.

B1: DNPH1^E104Q (human 2'-deoxynucleoside 5'-monophosphate N-glycosidase, crystallisation construct aa 19-162, E104Q) (enzyme, UniProt O43598 19-162, looked up)
chain: GRPALYFCGSIRGGREDRTLYERIVSRLRRFGTVLTEHVAAAELGARGEEAAGGDRLIHEQDLEWLQQADVVVAEVTQPSLGVGYQLGRAVAFNKRILCLFRPQSGRVLSAMIRGAADGSRFQVWDYEEGEVEALLDRYFEADP
notes: also called RCL; source: E. coli BL21 Star (DE3), purified (Ni-NTA, TEV cleavage, HisTrap and Resource Q flow-through, size exclusion)
B2: DNPH1^E55Q (human 2'-deoxynucleoside 5'-monophosphate N-glycosidase, crystallisation construct aa 19-162, E55Q) (enzyme, UniProt O43598 19-162, looked up)
chain: B1 chain with E37Q, Q86E
modifications: deoxyribose monophosphate (dRP) covalently fused to E104
notes: 2'-deoxynucleoside 5'-monophosphate N-glycosidase (DNPH1, RCL), human, isoform 1, residues 19-162 (crystallisation construct) with the point mutation E55Q; Co-crystallised with hmdUMP; the crystal holds the trapped glycosyl-enzyme intermediate; also called RCL

Tests used:
[1] = target: the molecule itself; experiment: crystal structure; DNPH1^E104Q co-crystallised with hmdUMP at 4 °C; space group P2_(1), 1.78 Å; six chains in the asymmetric unit
[2] = target: the molecule itself; experiment: crystal structure; DNPH1^E55Q co-crystallised with hmdUMP; space group P2_(1)2_(1)2_(1), 1.65 Å; one homodimer in the asymmetric unit

Row | Protein | binding result [1] | binding result [2]
1 | B1 | binds | –
2 | B2 | – | binds
